Values of other authors in paper PMC5386376.

Target: Egl1 (Caenorhabditis elegans) (UniProt O61667)
Sequence (O61667 whole entry): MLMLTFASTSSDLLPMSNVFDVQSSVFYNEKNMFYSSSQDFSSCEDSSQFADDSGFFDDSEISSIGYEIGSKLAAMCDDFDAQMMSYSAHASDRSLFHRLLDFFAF

Chain of Bcl-2 (P10415 whole entry): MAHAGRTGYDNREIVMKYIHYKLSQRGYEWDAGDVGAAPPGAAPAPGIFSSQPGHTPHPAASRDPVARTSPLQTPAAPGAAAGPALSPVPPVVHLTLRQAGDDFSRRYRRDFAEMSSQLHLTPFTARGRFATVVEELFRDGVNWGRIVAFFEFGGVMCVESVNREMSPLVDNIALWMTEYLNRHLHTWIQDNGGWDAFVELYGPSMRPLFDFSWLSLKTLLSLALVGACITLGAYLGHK

Kd: 7.1 µM
Substance: Bcl-2 (from UniProt P10415)
